Results from IntAct's records for PubMed 15901771.

B1: Potassium voltage-gated channel protein eag (Drosophila melanogaster (Fruit fly)), Q02280 (parent)
chain: MPGGRRGLVAPQNTFLENIIRRSNSQPDSSFLLANAQIVDFPIVYCNESFCKISGYNRAEVMQKSCRYVCGFMYGELTDKETVGRLEYTLENQQQDQFEILLYKKNNLQCGCALSQFGKAQTQETPLWLLLQVAPIRNERDLVVLFLLTFRDITALKQPIDSEDTKGVLGLSKFAKLARSVTRSRQFSAHLPTLKDPTKQSNLAHMMSLSADIMPQYRQEAPKTPPHILLHYCAFKAIWDWVILCLTFYTAIMVPYNVAFKNKTSEDVSLLVVDSIVDVIFFIDIVLNFHTTFVGPGGEVVSDPKVIRMNYLKSWFIIDLLSCLPYDVFNAFDRDEDGIGSLFSALKVVRLLRLGRVVRKLDRYLEYGAAMLILLLCFYMLVAHWLACIWYSIGRSDADNGIQYSWLWKLANVTQSPYSYIWSNDTGPELVNGPSRKSMYVTALYFTMTCMTSVGFGNVAAETDNEKVFTICMMIIAALLYATIFGHVTTIIQQMTSATAKYHDMLNNVREFMKLHEVPKALSERVMDYVVSTWAMTKGLDTEKVLNYCPKDMKADICVHLNRKVFNEHPAFRLASDGCLRALAMHFMMSHSAPGDLLYHTGESIDSLCFIVTGSLEVIQDDEVVAILGKGDVFGDQFWKDSAVGQSAANVRALTYCDLHAIKRDKLLEVLDFYSAFANSFARNLVLTYNLRHRLIFRKVADVKREKELAERRKNEPQLPQNQDHLVRKIFSKFRRTPQVQAGSKELVGGSGQSDVEKGDGEVERTKVFPKAPKLQASQATLARQDTIDEGGEVDSSPPSRDSRVVIEGAAVSSATVGPSPPVATTSSAAAGAGVSGGPGSGGTVVAIVTKADRNLALERERQIEMASSRATTSDTYDTGLRETPPTLAQRDLIATVLDMKVDVRLELQRMQQRIGRIEDLLGELVKRLAPGAGSGGNAPDNSSGQTTPGDEICAGCGAGGGGTPTTQAPPTSAVTSPVDTVITISSPGASGSGSGTGAGAGSAVAGAGGAGLLNPGATVVSSAGGNGLGPLMLKKRRSKSRKAPAPPKQTLASTAGTATAAPAGVAGSGMTSSAPASADQQQQHQSTADQSPTTPGAELLHLRLLEEDFTAAQLPSTSSGGAGGGGGSGSGATPTTPPPTTAGGSGSGTPTSTTATTTPTGSGTATRGKLDFL
partner: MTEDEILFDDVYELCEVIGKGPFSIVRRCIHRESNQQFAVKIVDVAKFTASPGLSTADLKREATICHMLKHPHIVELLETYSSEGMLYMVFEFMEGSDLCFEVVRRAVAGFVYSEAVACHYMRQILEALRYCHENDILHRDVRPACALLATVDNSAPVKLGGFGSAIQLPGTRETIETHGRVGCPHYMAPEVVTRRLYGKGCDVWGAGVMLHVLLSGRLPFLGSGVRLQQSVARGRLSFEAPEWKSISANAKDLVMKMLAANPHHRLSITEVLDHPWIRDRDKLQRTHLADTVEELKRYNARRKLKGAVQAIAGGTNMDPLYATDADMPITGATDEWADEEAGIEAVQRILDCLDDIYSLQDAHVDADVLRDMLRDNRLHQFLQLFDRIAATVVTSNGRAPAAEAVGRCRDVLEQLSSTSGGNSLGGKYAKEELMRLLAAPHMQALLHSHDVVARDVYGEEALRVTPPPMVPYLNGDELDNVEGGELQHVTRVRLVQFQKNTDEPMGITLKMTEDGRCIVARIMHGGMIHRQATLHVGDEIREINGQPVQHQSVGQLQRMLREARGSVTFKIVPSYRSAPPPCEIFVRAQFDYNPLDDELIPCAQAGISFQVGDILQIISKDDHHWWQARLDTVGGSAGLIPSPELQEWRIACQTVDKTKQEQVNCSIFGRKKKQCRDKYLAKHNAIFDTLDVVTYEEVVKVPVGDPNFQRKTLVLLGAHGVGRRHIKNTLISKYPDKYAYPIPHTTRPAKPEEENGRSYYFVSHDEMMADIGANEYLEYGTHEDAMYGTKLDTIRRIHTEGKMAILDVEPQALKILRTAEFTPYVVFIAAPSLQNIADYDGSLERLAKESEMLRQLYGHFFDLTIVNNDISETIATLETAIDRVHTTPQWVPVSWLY

Variants of: B1
Details: with cskp_drome CASK

Row | Variant | effect of a mutation on the interaction
1 | R1037L | decreasing interaction
2 | K1040M | decreasing interaction
